Measurements published in paper PMC5444840.
Where two headings read alike, the source gives them in different places.

How the values were obtained:
Assay in all cases: SPR; multi-cycle kinetics, Biacore X-100: rSgC or IgD amine-coupled on a CM4 chip; different chemokine concentrations at 30 ul/min, 180 s contact, 600 s dissociation, HBS-EP pH 7.4; global fit to a 1:1 Langmuir model
[1] = target: VZV gC IgD (amino acids P140 to V531, with the predicted immunoglobulin-like domains) (Varicella zoster virus, Dumas strain)
Sequence of VZV gC IgD (amino acids P140 to V531, with the predicted immunoglobulin-like domains) (Varicella zoster virus, Dumas strain) (P09256 171-562 limits assumed): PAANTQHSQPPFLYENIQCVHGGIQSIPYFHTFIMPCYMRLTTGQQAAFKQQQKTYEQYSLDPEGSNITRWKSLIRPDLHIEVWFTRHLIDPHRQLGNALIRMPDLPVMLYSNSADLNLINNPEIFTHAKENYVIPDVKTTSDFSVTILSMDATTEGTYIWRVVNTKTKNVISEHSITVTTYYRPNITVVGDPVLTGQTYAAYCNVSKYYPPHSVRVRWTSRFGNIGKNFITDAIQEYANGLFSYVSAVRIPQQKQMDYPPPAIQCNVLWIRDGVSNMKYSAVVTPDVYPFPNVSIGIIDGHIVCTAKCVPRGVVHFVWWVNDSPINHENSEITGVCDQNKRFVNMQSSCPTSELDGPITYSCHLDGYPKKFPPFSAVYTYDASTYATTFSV

[2] = target: recombinant soluble VZV glycoprotein C ectodomain (VZV rSgC) (Varicella zoster virus, Dumas strain)
Sequence of recombinant soluble VZV glycoprotein C ectodomain (VZV rSgC) (Varicella zoster virus, Dumas strain) (P09256 54-562 limits assumed): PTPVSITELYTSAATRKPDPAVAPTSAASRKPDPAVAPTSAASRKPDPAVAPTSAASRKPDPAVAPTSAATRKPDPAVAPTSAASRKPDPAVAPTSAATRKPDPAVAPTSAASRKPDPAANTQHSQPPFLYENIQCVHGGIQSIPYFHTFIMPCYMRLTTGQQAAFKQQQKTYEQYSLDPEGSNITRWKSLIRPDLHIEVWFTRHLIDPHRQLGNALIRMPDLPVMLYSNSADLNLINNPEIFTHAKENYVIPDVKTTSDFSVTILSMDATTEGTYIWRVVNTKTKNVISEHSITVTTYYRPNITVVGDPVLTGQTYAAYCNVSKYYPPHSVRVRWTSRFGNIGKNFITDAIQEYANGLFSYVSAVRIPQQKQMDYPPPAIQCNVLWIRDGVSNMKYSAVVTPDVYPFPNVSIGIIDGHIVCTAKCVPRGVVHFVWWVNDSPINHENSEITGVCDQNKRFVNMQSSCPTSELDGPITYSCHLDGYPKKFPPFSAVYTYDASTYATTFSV

[3] = target: VZV gC IgD (amino acids P140 to V531, with the predicted immunoglobulin-like domains) (Varicella zoster virus, Dumas strain); remark: listed apart in the source
[4] = target: recombinant soluble VZV glycoprotein C ectodomain (VZV rSgC) (Varicella zoster virus, Dumas strain); remark: listed apart in the source

Molecule | Kd [1] [nM] | koff [1] [s⁻¹] | kon [1] [M⁻¹ s⁻¹] | t(1/2) [1] [min] | Kd [2] [nM] | koff [2] [s⁻¹] | kon [2] [M⁻¹ s⁻¹] | t(1/2) [2] [min] | Kd [3] [nM] | koff [3] [s⁻¹] | kon [3] [M⁻¹ s⁻¹] | t(1/2) [3] [min] | Kd [4] [nM] | koff [4] [s⁻¹] | kon [4] [M⁻¹ s⁻¹] | t(1/2) [4] [min]
CCL13 (from UniProt Q99616 17-98) (ligand) | 0.299 | 0.00389 | 1.3e+07 | 2.97 | 0.176 | 0.00184 | 1.04e+07 | 6.29 |  |  |  |  |  |  |  | 
CCL2 (from UniProt P13500 24-99) (ligand) | 6.05 | 0.0013 | 214000 | 8.91 | 5.84 | 0.00101 | 173000 | 11.4 |  |  |  |  |  |  |  | 
CCL19 (from UniProt Q99731 22-98) (ligand) | 0.118 | 0.00161 | 1.37e+07 | 7.18 | 0.138 | 0.00212 | 1.54e+07 | 5.46 |  |  |  |  |  |  |  | 
CXCL13 (ligand) VLEVYYTSLRCRCVQESSVFIPRRFIDRIQILPRGNGCPRKEIIVWKKNKSIVCVDPQAEWIQRMMEVLRKRSSSTLPVPVFKRKIP |  |  |  |  |  |  |  |  | 0.567 | 0.0015 | 2.64e+06 | 7.72 | 0.422 | 0.00251 | 5.94e+06 | 4.61
